This data set concerns the molecule itself. The experiment in a line: cryo-EM structure; 7.4 uM KpFtsZ, 14.9 uM KpZapA (2x molar excess), 0.6 mM GMPCPP, 17 mM HEPES pH 7.5, 8.6 mM NaCl, 60 mM KCl, 3 mM MgCl2, on ice 15 min; helical refinement to 2.73 A; same data re-analysed with the focus on ZapA (3.89 and 4.27 A maps, 2D classes).

B1: K. pneumoniae ZapA (natural protein)
chain: MSAQPVDLQIFGRSLRVNCPPEQRDALNQAAEDLNQRLQDLKERTRVTNTEQLVFIAALNISYELTQEKAKTRDYASSMEQRIRMLQQTIEQALLEQGRISE
notes: ZapA of Klebsiella pneumoniae; synthetic gene codon-optimised for E. coli in pColdI-TEV; Tetramer in the structures; also called KpZapA; source: E. coli, purified (HisTrap, TEV cleavage, second HisTrap, Superdex200 SEC); not shown: His6, N-terminal, cleaved
For the protein B1, the stoichiometry N (in general, a count of units in the complex or per binding partner) worked out at 4.

B2: K. pneumoniae FtsZ (natural protein, UniProt W9BCK7 1-383, looked up)
chain: MFEPMELTNDAVIKVIGVGGGGGNAVEHMVRERIEGVEFFAVNTDAQALRKTAVGQTIQIGSGITKGLGAGANPEVGRNAADEDREALRAALDGADMVFIAAGMGGGTGTGAAPVVAEVAKDLGILTVAVVTKPFNFEGKKRMAFAEQGITELSKHVDSLITIPNDKLLKVLGRGISLLDAFGAANDVLKGAVQGIAELITRPGLMNVDFADVRTVMSEMGYAMMGSGVASGEDRAEEAAEMAISSPLLEDIDLSGARGVLVNITAGFDLRLDEFETVGNTIRAFASDNATVVIGTSLDPDMNDELRVTVVATGIGMDKRPEITLVTNKQVQQPVMDRYQQHGMSPLTQEQKPAAKVVNDNTPQTAKEPDYLDIPAFLRKQAD
notes: polymerised into protofilaments with GMPCPP, GTP or GMPPNP in the assays; also called KpFtsZ; wild-type FtsZ
As to B2, the binding result is “binds”.
